The record followed here is publication PMC2268108.

Assay [1] concerns the target Na/K pump α1 subunit-CFP fusion. Briefly: FRET or BRET.
Assay [2] has as its target canine kidney Na,K-ATPase (αβ protomer), erythrosin-labelled (dog (endogenous in kidney)) (UniProt P50997). Kind of assay: time-resolved phosphorescence anisotropy.

“phospholemman-citrineYFP fusion (natural protein)”: in assay [1], the increase of donor fluorescence on acceptor photobleaching is 23.8%.

In general, stoichiometry N refers to the number of molecules, sites or subunits per partner or assembly. On to “canine kidney Na,K-ATPase (αβ protomer), erythrosin-labelled (from UniProt P50997;P06583) (complex)”, for which the stoichiometry N in assay [2] was determined as 2.
